Results: paper doi:10.1101/093708 (bioRxiv, 2016)

Molecular target: the molecule itself
Assay: cryo-EM structure; EcFtsZ 0.5 mg/mL in 50 mM HEPES-KOH, 100 mM potassium acetate, 5 mM magnesium acetate, pH 7.7, 20 °C, 0.1 mM GMPCPP; helical reconstruction of filaments in RELION

B1: Escherichia coli FtsZ, full length, untagged, wildtype (natural protein, E. coli, UniProt P0A9A6 1-383, looked up)
chain: MFEPMELTNDAVIKVIGVGGGGGNAVEHMVRERIEGVEFFAVNTDAQALRKTAVGQTIQIGSGITKGLGAGANPEVGRNAADEDRDALRAALEGADMVFIAAGMGGGTGTGAAPVVAEVAKDLGILTVAVVTKPFNFEGKKRMAFAEQGITELSKHVDSLITIPNDKLLKVLGRGISLLDAFGAANDVLKGAVQGIAELITRPGLMNVDFADVRTVMSEMGYAMMGSGVASGEDRAEEAAEMAISSPLLEDIDLSGARGVLVNITAGFDLRLDEFETVGNTIRAFASDNATVVIGTSLDPDMNDELRVTVVATGIGMDKRPEITLVTNKQVQQPVMDRYQQHGMAPLTQEQKPVAKVVNDNAPQTAKEPDYLDIPAFLRKQAD
notes: also called EcFtsZ; E. coli FtsZ; source: E. coli C41 (DE3), purified (GTP and calcium-induced precipitation, Mono Q)
binding result: binds
